Test [1] deals with T1, human TIGIT (T-cell immunoreceptor with Ig and ITIM domains) (human, UniProt Q495A1 22-244).
T1 construct: also called hTIGIT
T1 sequence: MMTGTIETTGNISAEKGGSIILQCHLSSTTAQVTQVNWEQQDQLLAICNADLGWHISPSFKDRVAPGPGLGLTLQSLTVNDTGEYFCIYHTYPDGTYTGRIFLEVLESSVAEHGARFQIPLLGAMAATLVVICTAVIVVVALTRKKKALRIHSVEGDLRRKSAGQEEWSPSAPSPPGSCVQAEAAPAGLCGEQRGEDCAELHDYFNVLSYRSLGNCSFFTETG
Briefly: competition flow cytometry against hCD112-Fc-AlexaFluor647 on 293-hTIGIT cells. A general note: A flow cytometer gives signals particle by particle.

Test [2] deals with T1, human TIGIT (T-cell immunoreceptor with …). Description: competition flow cytometry against 1 ug/mL hCD155-Fc-AlexaFluor647 on 293-hTIGIT cells.
Description: Samples were analyzed on a CytoFLEX flow cytometer. Median fluorescence intensity of the FSC/SSC gated population was determined for each antibody concentration. Percent blockade was calculated relative to the MFI of the no antibody control. NonLinear regression of Log(X) transformed data was performed in GraphPad Prism 6.
Test [3] has the same target. Briefly: flow cytometry titration on HEK 293 cells expressing human TIGIT.
Another test concerns the target T2, cynomolgus monkey TIGIT (cynomolgus monkey).
T2 construct: On HEK 293 cells (lentiviral transduction) and on cynomolgus peripheral blood T cells; also called cyno TIGIT
Briefly: flow cytometry, MFI on cyno TIGIT HEK 293 cells over parental HEK 293 cells.

Test [4] concerns the target T1, human TIGIT (T-cell immunoreceptor with …). Description: flow cytometry, MFI on human TIGIT HEK 293 cells over parental HEK 293 cells.
Description: (§1) HEK 293 cells were engineered to stably express high levels of human, mouse or cynomolgus monkey TIGIT by lentiviral transduction. […] Cells were then washed twice with wash buffer and incubated with anti-human IgG conjugated to PE for 15 minutes on ice. Cells were then washed twice with wash buffer and analyzed by flow cytometry on a FACS Canto II instrument (BD Biosciences). Fold over background (FOB) was calculated as the median fluorescence intensity (MFI) of the anti-TIGIT clone bound to target-positive cells divided by the MFI of the anti-TIGIT clone bound to target-negative cells.
The target of test [5] is T3, discontinuous epitope mimic CKDRVAPGPGLGLTLQCI2NADLGWHISPSFKC (Cys-acetamidomethyl (Cys-acm, printed as '2') at position 19; Cys at positions 1, 17 and 33 used for the T3 CLIPS scaffold (as for Set 8)).
T3 peptide: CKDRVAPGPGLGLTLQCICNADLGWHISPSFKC
Description: Pepscan-based peptide array ELISA, discontinuous epitope mimics. For orientation: An ELISA detects its analyte on a solid surface through an enzyme-linked reagent.
Description: (§2) The binding of antibody to each of the synthesized peptides was tested in a pepscan-based ELISA. The peptide arrays were incubated with primary antibody solution (overnight at 4° C.). After washing, the peptide arrays were incubated with a 1/1000 dilution of a goat anti-human HRP conjugate (Southern Biotech) for one hour at 25° C. […] After one hour, the color development was measured. The color development was quantified with a charge coupled device (CCD)—camera and an image processing system.

Test [6] addresses T4, discontinuous epitope mimic CILQ2HLSSTTAQVTQCI2NADLGWHISPSFKC (Cys-acetamidomethyl (Cys-acm, printed as '2') at positions 5 and 19; Cys at positions 1, 17 and 33 used for the T3 CLIPS scaffold (as for Set 8)).
T4 peptide: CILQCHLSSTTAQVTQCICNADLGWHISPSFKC
Described as above.
Description: as §2

T2 sequence (chain, as listed by the source limits assumed): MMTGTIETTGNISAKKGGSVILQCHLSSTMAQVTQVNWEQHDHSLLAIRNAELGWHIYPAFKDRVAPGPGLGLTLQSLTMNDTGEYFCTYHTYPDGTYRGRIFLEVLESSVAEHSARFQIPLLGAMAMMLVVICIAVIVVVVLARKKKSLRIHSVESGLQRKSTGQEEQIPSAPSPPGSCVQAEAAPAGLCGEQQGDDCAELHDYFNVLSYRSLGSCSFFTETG
Description for cynomolgus monkey TIGIT: as §1

B1: Clone 13 (antibody, human IgG1, V domains shown)
VH: QVQLVQSGAEVKKPGSSVKVSCKASGGTFSSYAISWVRQAPGQGLEWMGSIIPIFGTANYAQKFQGRVTITADESTSTAYMELSSLRSEDTAVYYCARGPSEVGAILGYVWFDPWGQGTLVTVSS
VL: not shown
notes: Fully human IgG1 ('c13 hIgG1'); also called anti-TIGIT clone 13; c13 hIgG1
Take B1: the “IC50 (read off the curve)” value in test [1] was approximately 0.09 µg/mL; in test [2], approximately 0.2 µg/mL.

B2: mouse IgG2a chimera of anti-TIGIT clone 13 (antibody, V domains shown)
VH: QVQLVQSGAEVKKPGSSVKVSCKASGGTFSSYAISWVRQAPGQGLEWMGSIIPIFGTANYAQKFQGRVTITADESTSTAYMELSSLRSEDTAVYYCARGPSEVGAILGYVWFDPWGQGTLVTVSS
VL: not shown
notes: also called c13 mIgG2a
On to B2, for which the EC50 in test [3] came to 0.04 µg/mL. For the same molecule, the “IC50 (read off the curve)” value in test [1] is approximately 0.06 µg/mL.

B3: Clone 13D (antibody, V domains shown)
VH: QVQLVQSGAEVKKPGSSVKVSCKASGGTFLSSAISWVRQAPGQGLEWMGSIIPYFGKANYAQKFQGRVTITADESTSTAYMELSSLRSEDTAVYYCARGPSEVKGILGYVWFDPWGQGTLVTVSS
VL: not shown
notes: IgG
As to B3, the entries for the “FOB (Fold Over Background)” value (in the test with cynomolgus monkey TIGIT; in test [4]) were 245 fold and 190 fold, respectively.

B4: Clone 25 (antibody, V domains shown)
VH: QVQLVQSGAEVKKPGASVKVSCKASGYTFTSYAISWVRQAPGQGLEWMGWISAYNGNTNYAQKLQGRVTMTTDTSTSTAYMELRSLRSDDTAVYYCARDLSSFWSGDVLGAFDIWGQGTMVTVSS
VL: DIQMTQSPSSLSASVGDRVTITCRASQSISSYLNWYQQKPGKAPKLLIYAASSLQSGVPSRFSGSGSGTDFTLTISSLQPEDFATYYCQQSVPPRTFGGGTKVEIK
notes: Fully human IgG from a yeast presentation system; also called anti-TIGIT clone 25
As for B4, the binding result in test [5] and in test [6] was “binds” in each case.

Usually EC50 stands for the concentration at which the effect is half-maximal.

These data come from patent US20200040082A1 (Seagen, published 2020).
